Data from US9266939B2, “Compositions comprising natriuretic peptides and methods of use thereof” (Alexion Pharmaceuticals, Inc., priority 2010, dated 2016).

Assay: Active NC2st concentration in serum of treated Fgfr3^369/+ mice (cGMP assay)
Type: in vivo
Settings: 13-18 hours after the last dose
Description: At necropsy (Day 64), blood samples were collected by cardiac puncture under isoflurane anesthesia 13-18 hours after the last dose. Blood samples were collected into Microvette 500Z/gel tube (Sarstedt, serum/gel clotting activator, #20.1344), incubated at room temperature for 30 to 60 minutes and centrifuged at 10,000×g for five minutes at 2-8° C. 100 μl of serum was then transferred into 0.5 mL tubes (Sarstedt, #72.699), and the remainder was transferred in a second tube. The two tubes were frozen in liquid nitrogen and stored at −80° C. until analysis.

Substance: NC2st: Fc-CNP fusion: Strep-tag II, TEV site, human IgG-1 Fc, 16-amino acid glycine-rich linker, CNP22; SEQ ID NO: 502
- mean NC2st blood serum level (active concentration) (Tx10 group): above the projected threshold for 50% reversal of the ACH phenotype
- mean NC2st blood serum level (active concentration) (Tx100 group): nearly three-fold above the projected threshold for 100% reversal
